Values of other authors in patent US20050019270A1, “Formulation of powder containing nanoparticles for aerosol delivery to the lungs” (priority 2003, published 2005).

Settings: spray drying with polysorbate 20 added

Substance: recombinant human growth hormone: Protein in a prior spray drying study with polysorbate 20
- surface aggregation: < 2%
